What was measured:
Test in all cases: oriented sample solid-state NMR
[1] = biological target: wild-type sarcolipin (SLN^wt), recombinant (UniProt O00631 1-31)
[2] = biological target: SLN^ΔI3N4T5 (sarcolipin with I3, N4 and T5 deleted) (UniProt O00631 1-31, ΔI3N4T5)
[3] = biological target: SLN^ΔY29Q30Y31 (sarcolipin with Y29, Q30 and Y31 deleted) (UniProt O00631 1-31, ΔY29Q30Y31)
[4] = biological target: SLN^ΔT5R6E7 (sarcolipin with T5, R6 and E7 deleted) (UniProt O00631 1-31, ΔT5R6E7)

Measured: binding result

B1: sarcoplasmic reticulum Ca2+-ATPase SERCA1a purified from rabbit skeletal muscle (enzyme)
chain: MEAAHSKSTEECLAYFGVSETTGLTPDQVKRHLEKYGHNELPAEEGKSLWELVIEQFEDLLVRILLLAACISFVLAWFEEGEETITAFVEPFVILLILIANAIVGVWQERNAENAIEALKEYEPEMGKVYRADRKSVQRIKARDIVPGDIVEVAVGDKVPADIRILSIKSTTLRVDQSILTGESVSVIKHTEPVPDPRAVNQDKKNMLFSGTNIAAGKALGIVATTGVSTEIGKIRDQMAATEQDKTPLQQKLDEFGEQLSKVISLICVAVWLINIGHFNDPVHGGSWIRGAIYYFKIAVALAVAAIPEGLPAVITTCLALGTRRMAKKNAIVRSLPSVETLGCTSVICSDKTGTLTTNQMSVCKMFIIDKVDGDFCSLNEFSITGSTYAPEGEVLKNDKPIRSGQFDGLVELATICALCNDSSLDFNETKGVYEKVGEATETALTTLVEKMNVFNTEVRNLSKVERANACNSVIRQLMKKEFTLEFSRDRKSMSVYCSPAKSSRAAVGNKMFVKGAPEGVIDRCNYVRVGTTRVPMTGPVKEKILSVIKEWGTGRDTLRCLALATRDTPPKREEMVLDDSSRFMEYETDLTFVGVVGMLDPPRKEVMGSIQLCRDAGIRVIMITGDNKGTAIAICRRIGIFGENEEVADRAYTGREFDDLPLAEQREACRRACCFARVEPSHKSKIVEYLQSYDEITAMTGDGVNDAPALKKAEIGIAMGSGTAVAKTASEMVLADDNFSTIVAAVEEGRAIYNNMKQFIRYLISSNVGEVVCIFLTAALGLPEALIPVQLLWVNLVTDGLPATALGFNPPDLDIMDRPPRSPKEPLISGWLFFRYMAIGGYVGAATVGAAAWWFMYAEDGPGVTYHQLTHFMQCTEDHPHFEGLDCEIFEAPEPMTMALSVLVTIEMCNALNSLSENQSLMRMPPWVNIWLLGSICLSMSLHFLILYVDPLPMIFKLKALDLTQWLMVLKISLPVIGLDEILKFIARNYLEG
binds: all assays above

From article PMC8626070 (Science Advances, 2021)
